Data taken from US20120052569A1.

Target: monoclonal 2H5 antibody produced by rat-mouse hybridoma 2H5 (FERM BP-11245)
Assay: competitive elution of eTEV-GFPUV from 2H5 sepharose, peptide 0 to 1000 µg/mL, SDS gel

peptide concentration giving complete competitive elution: 30 µg/mL
B1: eTEV peptide (free peptide used as competitive eluent) (peptide)
peptide: RENLYFQGKDG
